Experimental data from the nanobody polyreactivity screen of Harvey et al. (2022).

Assay: yeast display, Sf9 membrane polyspecificity reagent, FACS + sequencing; frameworks hold sequencing errors
How it was run: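 Sorting gates, low and high (top ~1%), were placed on anti-HA fluorescence to track expression and on streptavidin fluorescence to track reagent binding. A clone's polyreactivity label is taken from the gate it came out of. The reagent was 10% biotinylated, detergent-solubilized Sf9 membrane, applied for 1 hour at 4 °C to galactose-induced yeast display cells.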

| Sequence | polyreactivity (PSR sort gate) |
| --- | --- |
| QVQLVESGGGLVQAGGSIRLSCAASGNTFRWYAMGWYRQAPGKEREFVAAISSSGGSTYYADSVKGRFTISRDNAKNTVYLQMNSLKPEDTAVYYCTAASVTRHVSFATDYEYWGQGTQVTVSS | high polyreactivity |
| QVQLVESGGGLVQAGGSIRLSCAASGRIFGRNAMGWYRQAPGKERELVAAISSSGGTYYADSGKGRFTISRDNAKNTVYLQMNSLKPEDTAVYYCNGRVRTQQRWVDYWGQGTQVTVSS | high polyreactivity |
| QVQLVESGGGLVQAGGSIRLSCAASGRIFNHNSMGWYRQAPGKERELVAAITKSGGSTYYADSVKGRFTISRDNAKNTVYFQINSLITEDTAVYYCATRLWKIPGAMYYWGQGTQVTVSS | high polyreactivity |
| QVQLVESGGGLVQAGGSIRLSCAASGRIFVRNAMGWYRQAPGKEREMVAAISWSSGGTYYADSVKGRFTISRDNAKNTVYLQMNSLKPEDTAVYYCNADPSRAGDYWGQGTQVTVSS | low polyreactivity |
| QVQLVESGGGLVQAGGSIRLSCAASGRTFDGNALGWYRKAPGKERELVAAITSGGSTNYAYSVKGRFTISRDNAKNTVYVQRNSLKPEDTAVYYCAAERWYGYSHSDFGYWGQGTQVTVSS | high polyreactivity |
| QVQLVESGGGLVQAGGSIRLSCAASGRTFGYYAMGWYRQAPGKERELVAAISWSGGRTYYADSVKGRFTISRDNAKNTVYLQMNSLKPEDTAVYYCAAQTAGFWYDYWGQGTQVTVSS | high polyreactivity |
| QVQLVESGGGLVQAGGSIRLSCAASGRTLPEYVMGWYRQAPGKERELVAAITTAGSTNYADSVKGRFTISRDNAKNTVYLQINCLKPEDTAVYYCAGTTRSRGFRDIDYWGQGTQVTVSS | low polyreactivity |
| QVQLVESGGGLVQAGGSIRLSCAASGSTISHNAMGWYRQAPGKERELVAAITRGDSTNYADSVKGRFTNTRDNAKNTVYLEMNSLKPEDTAVYYCNANKWYRYDYWGQGTQVTVSS | low polyreactivity |
| QVQLVESGGGLVQAGGSIRLSCDASGNTFCTYAMGWYRQAPGKERELVATSAKRAGSTYYADSVKGRFTISRDNAKNTVFLQLKCLKPEDTAFYDCARDAYSVYYYVFLHWEYDYWGQVTQVTVSS | high polyreactivity |
| QVQLVESGGGLVQAGGSIRLSSAASGFTFYPYMGWYRQAPVKERELVATITWIGDDTYYADSVKGRFTISRDNAKNTVYLQMNSLKPEDTAVYYCNTDVDDTLYYSPMDYWGQGTQVTVSS | low polyreactivity |
| QVQLVESGGGLVQAGGSLCLSCAASGRTFIRNAMGWYRPAPGKERELVAAINSGGITNYADSVKGRFTISRDNAKNTVYLQMNSLKPEDTALYYCNARQVLYGLYLRAYPYEYWGQGTQVTVSS | low polyreactivity |
| QVQLVESGGGLVQAGGSLGLSCAASGFTVYRYAMGWSRQAPGKERELVARTYYADSVKRRFTISRDNAKNTVYLQMNSLKPEDTAVYYCNIDLELEYRYEYWGQGTQVTVSS | low polyreactivity |
| QVQLVESGGGLVQAGGSLGLSCAASGRIFGVYAMGWYRQAPGTERELVAAIWSGGSTYYADSVKGRFTISRDNAKNTVYLQMNSLKPEDTAVYYCAADDAYSHRSLYSHNDYWGQGTQVTVSS | low polyreactivity |
| QVQLVESGGGLVQAGGSLGLSCAASGSIFGYYALGWYRPAPGKERELVAAISWSDGSTYYADSVKGRFTISRDNAKNTVYLQMNSLKPEDTAVYDCAARFTPYITSADGHYDYWGQGTQVTVSS | low polyreactivity |
| QVQLVESGGGLVQAGGSLGLSCAASGSIFSDYAMGWYRQATGKERELVAAITQSGGSTYADSVKGRFTISRDNAKNTVYLQMISLKPEDTAVYYCAADEVPGFGYPPYPWFDYWGQGTQVTVSS | low polyreactivity |
| QVQLVESGGGLVQAGGSLGLSCAASGSTFRSYAMGWYRQAPGKERELVAAISSAGTTYYADSVKGRFTISRDNAKNTVYLQMNSLKPEDTAVYYCAAKYSYYTYAGDGGLFSWSYGYWGQGTQVTVSS | low polyreactivity |
| QVQLVESGGGLVQAGGSLGLSCAAYGSIFVGNAMGWYRQAPGNERELVAAICRSGGITYYADSVKGRFTISRDNAKNTVYLQMNSLKPEDTAVYYCAARHRYYYQYRSDYWGQGTQVTVSS | high polyreactivity |
| QVQLVESGGGLVQAGGSLGLTCAASGSIFYGYAMAWYRPAPGKERELVAAISSSGGNTYYADSVKGRFTISRDNAKNTVYLQMNSLKPEDTAVYYCNKVYYQVKYDYWGQGTQVSVSS | low polyreactivity |
| QVQLVESGGGLVQAGGSLHLSCAASGFTFDGYTMGWYRQAPGKERELVATITTGGSTYYADSVKGRFTISRDNAKNTVYLQMNSLKPEDTAVYYCAADYRGVPYIKWPKDFEYWGQGTQVTVSS | low polyreactivity |
| QVQLVESGGGLVQAGGSLHLSCAASGRIFGKYAMGWYRQAPGKEREFVAAIRSSDGNTYYADSVKGRFTISRDNAKNTVYLQMNSLKPEDTAVYYCAARGTLWTYGYWGQGTQVTVSS | high polyreactivity |
| QVQLVESGGGLVQAGGSLLLICAASGSTFYLNAMGWYRQAPGKERELVAAITGRSGSTYYADSVKVRFTISRDNAKNTVYLQMNSLKPEDTAVYYCAADYSPWRSDFDYWGQGTQVTVSS | low polyreactivity |

| Sequence | polyreactivity (PSR sort gate) |
| --- | --- |
| QVQLVESGGGLVQAGGSLLLSCAAARIIFKYNAMGWYRQAPGKDRELVARITARGGRTNYADSVKGRFTISRDNAKHTVYLQMNSLKPEDTAVYYCAKKLRGWHTIITDYDYWGQGTQVTVSS | low polyreactivity |
| QVQLVESGGGLVQAGGSLLLSCAASGFIFAGYAMGWYRQAPGKERELVAPISKRGGTTYYADSVKGRFTISRDNAKNTVYLQMNSLKPEDTAVYYCNAKRTYRVVWASSYEYDYWGQGTQVTVSS | high polyreactivity |
| QVQLVESGGGLVQAGGSLLLSCAASGFTFRYYAMGWYRQAPGTERELVAAISSGGNTRYADSVKGRFTISRDNAKITVYLQLNSLKPEDTAVYYCARRPGAPRESYDYWGQGTQVTVSS | high polyreactivity |
| QVQLVESGGGLVQAGGSLLLSCAASGRIFDLNAMGWYRQAPGKERELVAAITNTGSTNYADSVKGRFTISRDNAKNTVYLQMNSLKPEDTAVYYCARTYWLRYYGYRDDEYDYWGQGTQVTVSS | low polyreactivity |
| QVQLVESGGGLVQAGGSLLLSCAASGRIFRSYTMGWYRQAPGKERELVAAITSYGGRTYYADSVKGRFTISRDNAKNTVYLQMNRLKPEDTAVYYCAAHLSRDKFDYWGQGTQVTVSS | low polyreactivity |
| QVQLVESGGGLVQAGGSLLLSCAASGRIFSYNAMGWYRQAPGKERELVAVISRSDTSTYYADSVKGRFTISRDNAKNTVYLQMNSLKPEDTAVYYCNADGPSYFRYSGYYYWGQGTQVTVSS | low polyreactivity |
| QVQLVESGGGLVQAGGSLLLSCAASGRIFYRYAMGWYRQAPGKERELVAAISRGGSTYYADSVKGRYTISRDNAKNTVYLQMNSLKPEDTAVYYCAKDGYWGYDYWGQGTQVTVSS | high polyreactivity |
| QVQLVESGGGLVQAGGSLLLSCAASGRTFRPYSMGWYRQAPGKERELVAAITRSGGSTYYADSVKGRFTISRDNEKNTVYLQMNSLKPEDTAVYYCAAYNTYSDTYDYWGQGTQVTVSS | low polyreactivity |
| QVQLVESGGGLVQAGGSLLLSCAASGRTLGKYAMGWYRQAPGKERELVAAISSGGGSTYYSDSVKGRFTISRDNAKNTVYLLMNSLKPEDTAVYYCAADSVSRYNGYDYWGQGTQVTVSS | high polyreactivity |
| QVQLVESGGGLVQAGGSLLLSCAASGSIFIYYTIGWYRQARGKARELVAAITRSGGDTYYADSVKGRFTISRDNAKNTVYLQMNSLKPEDTAVYYCAADSWLRYGTYEYWGQGTQVTVSS | high polyreactivity |
| QVQLVESGGGLVQAGGSLLLSCAASGSIFRYYAMGWSRQAPGKERELVAAISSNGASTYYADSVKGRFTISRDNAKNTVYLQKNSLKPEVSGVYYCAARFRRAPGYYWGQGTQVTVSS | high polyreactivity |
| QVQLVESGGGLVQAGGSLLLSCAASGSIFYRYAMGWDRQAPGKERELVAAISWNGGTTYYADSVKGRFTISRDNAKNTVYLQMNSLKPEDTAVYYCAADRPTSVYLFDYWGQGTLVTVSS | high polyreactivity |
| QVQLVESGGGLVQAGGSLLLSCAASGSIFYYYAMGWYRQAPGKERELVAAISKSGGSTYADSVKGRFTISRDNAKNTVYLQMNSLKPEDTAVYYCAKEFKYWGYPYDYWGQGTQVTVSS | low polyreactivity |
| QVQLVESGGGLVQAGGSLLLSCAASGSILRMYVMGWYRQAPGKESELVADRSDRGGSTYYADSVKGRFTISRDNAKNTVYLQMNSLKPEDTAVYYCAKDSETAGATYTEYDYWGQGTQVTVSS | low polyreactivity |
| QVQLVESGGGLVQAGGSLLLSCAASGSTFISYAMGWYRQAPGKERELVAAITWRGGSTYNADSVKGRFTISRDNAKNTVYLQMNSMKPEDTAVYYCAAEFYYYYGRYDYWGQGTQVTVSS | high polyreactivity |
| QVQLVESGGGLVQAGGSLLLSCAASGTTSLVNAMGSYRQAPGKERELVAAISWSGGSTYYADSVKGRFTISRANAKNTVFLQRNSLKPEDTAVYYCAAESYGYWEYDYWGQGTQVTLSS | high polyreactivity |
| QVQLVESGGGLVQAGGSLLLSSAASGINFGNYAMGWYRQAPGKERELVATIDSAGSPYYADSVNGRFTISRDNAKNTVYLQMNSLKPEDTAVYYCAVRFGTYGRYFGYDYWGQGTQVTVSS | high polyreactivity |
| QVQLVESGGGLVQAGGSLLLTCAASGIIFVIYAMGWYRQAPGKERELVAAITSDGSTSYADSVKGRFTISRDNAKNTVYLQMNSLKPEDTAVYYCAKDFFEHSPVSHTYSSSKYDYWGQGTQVTVSS | low polyreactivity |
| QVQLVESGGGLVQAGGSLPLICAASGSTSVVNAMGWYRQAHGKERELVATIPRVGRTYYADSVKGRFTISRDNAKNTVYLQMNSLKPEDTAVYYCASRLVGRSYKYDYWGQGTQVTVSS | high polyreactivity |
| QVQLVESGGGLVQAGGSLPLSCAASGFIFYRYTMGWYRQAPGKERELVAAITRNGVSTYYADSVKGRFTISRDNAKNTVYLQMNSLKPEDTAVYYCAAQRYRTGDSWGQGTQVTVSS | high polyreactivity |
